The assay has as its target mouse HGF receptor c-Met (endogenous in mouse hepatocytes and liver) (mouse) (UniProt P16056). The assay can be described thus: cell-based or functional assay.

For the substance “full-length mouse MERMUC overexpressed in MERMUC-Tg mice (from UniProt Q8BUE7 22-656)”, the ratio of liver weight to body weight after transient overexpression of human HGF stood at 1.2 times.

The record behind these values is patent US20050113284A1, “Drug for regenerating tissue and vessel and method therefor” (priority 2001, published 2005).
